Residue numbers refer to the chain shown, from its start. Names may count otherwise.
Assays:
[1] = tested on: Fibroblasts (MEF) from a fetal p53 hetero-deficient mouse having the Nanog reporter; assay: Establishment of iPS cells (GFP-positive colonies) from MEFs with 4 factors and a p53 inhibitor; format: cell-based; conditions: 4 factors; 6 nM in medium from day 6; counted on day 20; compared with cells treated with DMSO
Method: The effects of a p53 inhibitor on the efficiency of establishment of iPS cells were examined. The retrovirus used for reprogramming was prepared by introducing a retrovirus expression vector (pMXs-Oct3/4, pMXs-Sox2, pMXs-Klf4, pMXs-cMyc) into Plat-E cells that had been sown to a 6-well culture plate (Falcon) at 0.6×10^6 cells per well on the previous day. The culture broth used was DMEM/10% FCS (DMEM (Nacalai tesque) supplemented with 10% fetal bovine serum), and cultured at 37° C. and 5% CO2. For vector transfer, 4.5 μL of the FuGene6 transfection reagent (Roche) was placed in 100 μL of Opti-MEM I Reduced-Serum Medium (Invitrogen), and this mixture was allowed to stand at room temperature for 5 minutes. Thereafter, 1.5 μg of each expression vector was added, and the mixture was further allowed to stand at room temperature for 15 minutes, and then added to Plat-E culture broth. On day 2, the Plat-E supernatant was exchanged with a fresh supply of the medium; on day 3, the culture supernatant was recovered and filtered through a 0.45 μm sterile filter (Whatman), polybrene (Nacalai) was added to obtain a concentration of 4 μg/mL, and this was used as the viral liquid.
Fibroblasts (MEF) were isolated from a fetal p53 hetero-deficient mouse having the Nanog reporter (13.5 days after fertilization). […] GFP-positive colonies were counted on day 20. […]

p53-null MEF = assay: iPS cell generation from p53-null MEF with forced expression of p21; format: cell-based, mouse
HDF = assay: iPS cell generation from HDF with p53-regulated genes, with or without the p53 shRNA; format: cell-based, human; conditions: four factors and the p53 shRNA; colonies counted day 28
Excerpt: Genes regulated (4 increased and 7 decreased) by p53 suppression were introduced into HDFs together with the four reprogramming factors (FIG. 24A) or the four reprogramming factors and the p53 shRNA (FIG. 24B). On day 24 (FIG. 24A) or day 28 (FIG. 24B) post-transduction, numbers of iPS cell colonies were counted. **; p<0.01 compared to DsRed control (n=3).
Among these we transduced four increased genes and seven decreased genes by retroviruses into HDF, together with either the four reprogramming factors alone, or with the four factors and the p53 shRNA.

[2] = tested on: Fibroblasts (MEFs) from a fetal p53 hetero-deficient mouse having a Nanog reporter; assay: Establishment of iPS cells from MEFs with 4 or 3 factors and the dominant negative mutant p53P275S; format: cell-based; conditions: compared with mutation-free p53 or DsRedExpress
Method: The function of endogenous p53 was inhibited using a dominant negative mutant of p53, and its influence on the efficiency of establishment of iPS cells was investigated. The dominant negative mutant used was p53P275S, prepared by causing a point mutation of the proline at the position 275 located in the genome-binding region of p53 to serine (Annemieke de Vries (2002). PNAS 99, 2948-2953).
The retrovirus used for reprogramming was prepared by introducing retrovirus expression vector (pMXs-Oct3/4, pMXs-Sox2, pMXs-Klf4, pMXs-cMyc, pMXs-p53P275S) into Plat-E cells that had been sown to a 6-well culture plate (Falcon) at 0.6×10^6 cells per well on the previous day (for how to prepare pMXs-p53P275S, see Example 6 below). The culture broth used was DMEM/10% FCS (DMEM (Nacalai tesque) supplemented with 10% fetal bovine serum), and cultured at 37° C. and 5% CO2. For vector transfer, 4.5 μL of the FuGene6 transfection reagent (Roche) was placed in 100 μL of Opti-MEM I Reduced-Serum Medium (Invitrogen), and this mixture was allowed to stand at room temperature for 5 minutes. Thereafter, 1.5 μg of each expression vector was added, and the mixture was further allowed to stand at room temperature for 15 minutes, and then added to Plat-E culture broth. […]
GFP-positive colonies were counted on day 21 for the 4 factors, and on day 28 for the 3 factors. […]

[3] = tested on: Oct4-GFP, p53-heterozygous MEF; assay: iPS generation by the three factors co-transduced with wild-type or mutant p53, p53-heterozygous MEFs; format: cell-based, mouse; conditions: retroviral co-transduction, counted 28 days after transduction
Excerpt: (§1) FIGS. 13A and 13B show iPS generation from p53 heterozygous or homozygous MEFs by the three factors co-transduced with wild-type or mutant p53. […] After retroviral transduction, 5000 cells were collected and GFP-positive colonies were counted 28 days after the transduction. Data of three independent experiments are shown. […] After retroviral transduction, 5000 live cells were collected and GFP-positive colonies were counted 28 days after the transduction. Data of two independent experiments are shown.
(§2) We used either the Nanog-GFP or Oct3/4-GFP reporter system for sensitive and specific identification of iPS cells (Okita K. et al. Nature 448, 313 (2007)). […] The cells were infected next day (day 0) with retrovirus made from Plat-E. On day 5, cells were reseeded either at one cell per well of 96-plates by a cell sorter (FACS Aria, Beckton Dekinson) or 5000 cells per 100 mm-dish. Puromycin selection ([…]) was initiated on day 13 in the four-factor protocol and on day 19 in the three factor protocol. Numbers of GFP positive colonies were determined on day 21 for the four-factor protocol and on day 28 in the three factor protocol.
(§3) First, we tested the effect of dominant negative mutants of p53 on the generation of iPS cells. […] After sequencing verification, cDNA was transferred to pMXs-gw by Gateway cloning technology (Invitrogen). […]

Nanog-GFP, p53-null MEFs = assay: iPS generation by the three factors co-transduced with wild-type or mutant p53, p53-null MEFs; format: cell-based, mouse; conditions: retroviral co-transduction, counted 28 days after transduction
Excerpt: as §1, §2, §3

## O=[N+]([O-])c1ccc(-c2cn3c4c(sc3n2)CCCC4)cc1 [Pifithrin α, p-Nitro, Cyclic, 2-(4-Nitrophenyl)imidazo[2,1-b]-5,6,7,8-tetrahydrobenzothiazole]
[1]
  increase in the number of GFP-positive colonies: about 4 times

## p21: cyclin-dependent kinase inhibitor 1A (p21, Cip1), p53 target gene, forcibly expressed by retrovirus
p53-null MEF
  iPS cell generation: markedly decreased
HDF
  counteraction of the effect of the p53 shRNA on iPS cell generation: effectively counteracted

B1: p53P275S: dominant negative mutant of mouse p53, proline 275 to serine, expressed from retroviral vector pMXs-p53P275S (protein, UniProt P02340 1-390, looked up, variant P275S)
Cellular tumor antigen p53: MTAMEESQSDISLELPLSQETFSGLWKLLPPEDILPSPHCMDDLLLPQDVEEFFEGPSEALRVSGAPAAQDPVTETPGPVAPAPATPWPLSSFVPSQKTYQGNYGFHLGFLQSGTAKSVMCTYSPPLNKLFCQLAKTCPVQLWVSATPPAGSRVRAMAIYKKSQHMTEVVRRCPHHERCSDGDGLAPPQHLIRVEGNLYPEYLEDRQTFRHSVVVPYEPPEAGSEYTTIHYKYMCNSSCMGGMNRRPILTIITLEDSSGNLLGRDSFEVRVCACSGRDRRTEEENFRKKEVLCPELPPGSAKRALPTCTSASPPQKKKPLDGEYFTLKIRGRKRFEMFRELNEALELKDAHATEESGDSRAHSSYLKTKKGQSTSRHKKTMVKKVGPDSD
[2]; 3 factors, counted on day 28
  increase in the number of GFP-positive colonies: about 3 times
[2]; 4 factors, counted on day 21
  increase in the number of GFP-positive colonies: about 4 times
[3]
  number of GFP-positive colonies / efficiency of iPS cell generation: substantial increase

B2: D278N: transactivation-negative mouse p53 mutant, aspartic acid 278 to asparagine, retrovirally expressed (protein, UniProt P02340 1-390, looked up, variant D278N)
Cellular tumor antigen p53: B1 Cellular tumor antigen p53 with S275P, D278N
Nanog-GFP, p53-null MEFs
  number of GFP-positive colonies: weaker effects

B3: S58A: transactivation-negative mouse p53 mutant, serine 58 to alanine, retrovirally expressed (protein, UniProt P02340 1-390, looked up, variant S58A)
Cellular tumor antigen p53: B1 Cellular tumor antigen p53 with S58A, S275P
Nanog-GFP, p53-null MEFs
  number of GFP-positive colonies: weaker effects

From patent US12012615B2, “Method of making induced pluripotent stem cells using p53 inhibitors” (Kyoto University, priority 2008, dated 2024)
